Assay results published in patent US20230002492A1 (SIMCERE SHANGHAI PHARMACEUTICAL, published 2023).
Numbering of substitutions follows the chain as printed.

B1: PDL1-794 (antibody, V domains shown)
VH: EVQLQESGPSLVKPSQTLSLTCSVTGDSITSGYWNWIRKFPGNKLEYMGYISYSGSTYYNPFLKSRISITRDTSKNQYYLQLNSVTTEDTATYYCAKMGDWLAWFAYWGQGTTVTVSS
VL: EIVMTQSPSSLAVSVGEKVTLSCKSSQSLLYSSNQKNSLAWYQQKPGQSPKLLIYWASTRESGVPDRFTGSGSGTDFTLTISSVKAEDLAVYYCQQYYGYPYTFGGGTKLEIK
B2: PDL1-370 (antibody, V domains shown)
VH: EVQLQESGPGLAKPSQTLSLTCSVTGYSITSDYWNWIRKFPGNKLEYMGYISYTGSTYYNPSLKSRISIARDTSRNQYYLQLNSVTTEDSATYYCARAGGWLLPFAVWGTGTTVTVSS
VL: DIVITQSPSSLAVSVGEKVTMSCKSSQSLLYSSNQQNSLAWYQQKPGQSPILLIYWASTRESGVPDRFTGGGSGTDFTLTISSVRAEDLAVYYCQQYYNYPWTFGGGTKLEIK
B3: PDL1-413 (antibody, V domains shown)
VH: B2 VH with N83K, S90T
VL: B2 VL with I4M, G71S, N99S
B4: 156-11H (antibody, V domains shown)
VH: QVQLVQSGPELKKPGASVKISCKASGYTFTDYYMNWVRQAPGQSLEWIGDIWPNNGDTSYNQKFKGRVTLTRDTSTSTVYMELRSLRSEDTAVYYCARSVMDYWGQGTLVTVSS
VL: EIVLTQSPALLSLSPGERVTLSCSASSSVNYVYWYQQKPGQAPRPLIYLTFNLASGIPARFSGSGSGTDFTLTISSLEPEDFAVYYCQQWSVNPLTFGGGTKVEIK
B5: 156-7H (antibody, V domains shown)
VH: B4 VH with Y103T
VL: B4 VL
B6: 156-1H (antibody, V domains shown)
VH: B4 VH with S59W
VL: B4 VL
B7: 156-10H (antibody, V domains shown)
VH: B4 VH with D102S, Y103D
VL: B4 VL with V92S
B8: PDL1-130 (antibody, V domains shown)
VH: EVQLQESGPGLAKPSQTLSLTCSVTGYSITSDYWNWIRKFPGNKLEYVGYISYTGSTYYNPSLRSRISITRDTSKNQYYLQLNSVTAEDTATYYCARCPGWLNAMDYWGQGTTVTVSS
VL: DILMTQSPSSLAVSVGEKVTLSCKSSQSLLYSNNQKNSLAWYQQKPGQSPKLLIYWASTGESGVPDRFTGSGSGTDFTLTISSVKAEDLAVYYCQQYYGYPFTFGAGTKLEIK
B9: PDL1-50 (antibody, V domains shown)
VH: EVQLQESGGDLVKPGGSLKLSCAASGFTFNTYGMSWVRQTPDKRLEWVATLSSGGSYTYYSESVKGRFTISRDNAKNTLYLQMTSLKSEDTAIYYCARPTADWHLDVWGTGTTVTVSS
VL: DIQMTQSPSSLSASLGGKVTITCKASQDINKYIAWYQHKPGKGPRLLIHYTSTLQPGIPSRFSGSGSGRDYSFSISNLEPEDIATYYCLQHDNLLFTFGSGTKLEIK
B10: PDL1-90 (antibody, V domains shown)
VH: B9 VH with A23T, N30S, L51V, S61P, E62D, T84S
VL: B9 VL with S7T, K31R, R45S
B11: PDL1-34 (antibody, V domains shown)
VH: B9 VH with T84N
VL: B9 VL with Q3L, K24N, R45S
B12: PDL1-373 (antibody, V domains shown)
VH: EVQLQESGGGLVKPGGSLKLSCAASGFTFSDYGMHWVRQAPEKGLEWVAYISSGSSTIYYADTVKGRFTISRDNAKNTLFLQMTSLRSEDTAMYYCARRNFGSSYDYWGQGTTVTVSS
VL: EIVMTQSHKFMSTSVGDRVSITCKASQDVDTPVAWYQQKPGQSPRLLIYWASIRHTGVPDRFTGSGSGTDFTLTISNVQSEDLADYFCQQYSSYPLTFGSGTKLEIK
B13: PDL1-156 (antibody, V domains shown)
VH: EVQLQESGPELVKPGASVKISCKASGYTFTDYYMNWVRQSHGKSLEWIGDINPNNGDTSYNQKFKGKATLTVDKSSSTAYMDLRSLTSEDSAVYYCASSVMDYWGQGTTVTVSS
VL: DIVLTQSPALMSASPGEKVTMTCSASSSVNYVYWYQQKPRSSPKPWIYLTFNLASGVPARFSGSGSGTSYSLTISSMEAEDAATYYCQQWSSNPLTFGAGTKLEIK

Legend:
[1] = biological target: T1, recombinant human PD-L1-His (Novoprotein, Cat. 315) (human, UniProt Q9NZQ7 19-239); experiment: SPR, Biacore T200, antibody captured, PD-L1-His injected, 1:1 model, 25 C
T1 construct: Bought protein; also called human PD-L1 recombinant protein; human PDL1 protein; not shown: His tag
T1 sequence (Q9NZQ7 19-239 limits assumed): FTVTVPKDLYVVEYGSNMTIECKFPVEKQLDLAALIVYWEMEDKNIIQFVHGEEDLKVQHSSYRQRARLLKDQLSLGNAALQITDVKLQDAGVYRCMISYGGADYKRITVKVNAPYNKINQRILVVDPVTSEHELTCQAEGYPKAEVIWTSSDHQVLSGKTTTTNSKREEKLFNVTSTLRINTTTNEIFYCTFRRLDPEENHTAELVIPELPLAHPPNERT
Description: (§1) Biacore T200 (GE Healthcare) was used to determine binding affinity of the PD-L1 antibody to the human and cynomolgus monkey PD-L1-His proteins. Anti-human IgG Fc (Genway, Cat. GWB-20A705) was immobilized on CM5 chip (GE Healthcare, Cat. BR-1005-30) at 25° C. Anti-human Fc (Genway, Cat. GWB-20A705) was diluted to […] with Acetate pH5.0 (GE Healthcare, BR-1003-51). The Amine method in the Immobilization method was used to immobilize. Alternatively, a commercially available Protein A (GE Healthcare, Cat. 29127556) chip was used for detection. […] In each cycle, the antibody to be tested was captured on the fixed CM5 chip, then injected with recombinant human PD-L1-His (Novoprotein, Cat. 315) and cynomolgus monkey PD-L1-His protein (Sino Biological, Cat. 90251-CO8H), and finally regenerated with Glycine pH1.5. The mobile phase was HBS-EP+Buffer (GE Healthcare, Cat. BR-1006-69), the flow rate was 30 μL/min, and the binding time was 300 seconds. The regeneration flow rate was 30 μL/min and the time was 30 seconds. Using Biacore T200 evaluation software (version 3.0), a 1:1 binding model was used to analyze the experimental data, fit the equilibrium dissociation constant KD of the antibody and antigen, and determine the binding rate constant Ka and dissociation rate constant Kd.

[2] = biological target: T2, cynomolgus monkey PD-L1-His protein (Sino Biological, Cat. 90251-CO8H) (cynomolgus monkey, UniProt G7PSE7 19-238); experiment: as above
T2 construct: Bought protein; also called cynomolgus monkey PD-L1 recombinant protein
T2 sequence (G7PSE7 entry or part of it limits assumed): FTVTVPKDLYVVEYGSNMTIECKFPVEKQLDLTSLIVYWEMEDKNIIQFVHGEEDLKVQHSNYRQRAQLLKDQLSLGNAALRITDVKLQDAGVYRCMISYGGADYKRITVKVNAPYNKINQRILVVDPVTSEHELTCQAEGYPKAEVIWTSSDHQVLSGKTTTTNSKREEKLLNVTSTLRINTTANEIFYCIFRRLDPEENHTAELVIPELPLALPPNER
Description: as §1

[3] = biological target: T3, recombinant human PD-L1 protein (Sino Biological, Cat. 10084-H05H) (human, UniProt Q9NZQ7 19-239); experiment: competitive ELISA: coated human PD-L1 protein, antibody titrated together with human PD-1-His, bound PD-1-His detected with HRP anti-His
T3 construct: also called PD-L1-mFc; human PD-L1 protein fused with mouse Fc
T3 sequence (Q9NZQ7 19-239 limits assumed): as the sequence (Q9NZQ7 19-239 limits assumed) above
Description: (§2) The recombinant human PD-L1 protein (Sino Biological, Cat. 10084-H05H) was diluted with carbonate buffer and added to a 96-well plate at a final concentration of […]. […] Then HRP-labeled anti-His tag antibody (MBL, Cat. D291-7) was added, and color development was performed with TMB. After termination with 1M sulfuric acid, OD values (dual wavelength 450 nm-630 nm) were read. The competitive binding curve of the test antibody can be drawn by matching the antibody concentration with the OD value to calculate the IC50 value.

[4] = biological target: T4, PD-L1 on the surface of CHO-PD-L1 cells (UniProt Q9NZQ7 19-290, limits assumed); experiment: flow cytometry on CHO-PD-L1 cells, anti-human IgG PE
T4 construct: whole, on cells; also called CHO-PD-L1 cells (Nanjing Yongshan Biotechnology); CHO cell line (GenScript, Cat. M00613) stably transfected with PD-L1
T4 sequence (Q9NZQ7 19-290 limits assumed): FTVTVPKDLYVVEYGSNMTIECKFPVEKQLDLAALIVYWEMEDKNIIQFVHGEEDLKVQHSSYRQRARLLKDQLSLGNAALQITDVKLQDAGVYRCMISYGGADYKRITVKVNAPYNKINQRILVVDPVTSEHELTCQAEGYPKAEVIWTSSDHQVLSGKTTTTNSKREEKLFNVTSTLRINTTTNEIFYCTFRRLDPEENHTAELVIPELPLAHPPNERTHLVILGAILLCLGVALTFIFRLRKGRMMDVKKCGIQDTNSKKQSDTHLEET
Description: (§3) A gradient concentration of antibodies to be detected (final concentration of antibody: 10000 ng/ml-0.1 ng/ml, 10-foldserial dilution) were incubated with CHO-PD-L1 cells (Nanjing Yongshan Biotechnology Co., Ltd., 10⁵ cells/well) with high expression of PD-L1 on the cell surface at 4° C. ° C. for 30min. After incubation, 1:250 diluted anti-human IgG PE fluorescent antibody (eBioscience, Cat. 12-4998-8) was added, and incubated at 4° C. for 30 min. The fluorescent antibody specifically bound to the Fc fragment of the antibody to be detected. The fluorescent intensity of PE was detected by FACS, and the ability of the antibody to be detected to bind to PD-L1 protein highly expressed on the cell surface was analyzed. […] MFI fold=MFI value of the experimental group/MFI value of the control group without drugs.

[5] = biological target: T3, recombinant human PD-L1 protein (Sino …); experiment: competitive ELISA: PD-L1 coated, antibody titrated against PD-1-His, anti-His-HRP
Description: as §2

[6] = biological target: T4, PD-L1 on the surface of CHO-PD-L1 cells; experiment: cell-based or functional assay
[7] = biological target: T1, recombinant human PD-L1-His …; experiment: SPR, Biacore T200, antibody captured, human PD-L1-His injected, 1:1 model, 25 C
Description: as §1

[8] = biological target: T4, PD-L1 on the surface of CHO-PD-L1 cells; experiment: flow cytometry on CHO-PD-L1 cells, anti-human IgG PE, MFI fold, ng/ml is the unit of the concentration axis
Description: as §3

[9] = biological target: T3, recombinant human PD-L1 protein (Sino …); experiment: competitive ELISA: coated human PD-L1 protein, antibody titrated together with human PD-1-His, bound PD-1-His detected with HRP anti-His; panel A experiment (the text prints only the panel B value)
Description: as §2

Row | Binder | Kd [1] [nM] | Kd [2] [nM] | IC50 [3] [µg/mL] | EC50 [4] [µg/mL] | IC50 [5] [µg/mL] | EC50 of NFAT luminescence reporter gene (RLU), Jurkat-PD-1 / CHO-PD-L1 co-culture [6] [µg/mL] | Kd [7] [nM] | koff [7] [s⁻¹] | kon [7] [M⁻¹ s⁻¹] | EC50 [8] [µg/mL] | IC50 [9] [µg/mL]
1 | B1 | 1.25 | 0.883 | 0.191 |  |  |  |  |  |  |  | 
2 | B2 | 2.42 | 2.18 | 0.156 |  |  |  |  |  |  |  | 
3 | B3 | 2.09 | 2.76 | 0.184 |  |  |  |  |  |  |  | 
4 | B4 |  |  |  | 0.05 | 0.207 | 0.282 | 0.336 | 0.000193 | 574000 |  | 
5 | B5 |  |  |  | 0.0784 | 0.231 | 0.314 | 0.348 | 0.00018 | 518000 |  | 
6 | B6 |  |  |  | 0.0494 | 0.197 | 0.342 | 0.458 | 0.000227 | 494000 |  | 
7 | B7 |  |  |  | 0.0635 | 0.25 | 0.357 | 0.224 | 0.000133 | 595000 |  | 
8 | B8 | 2.18 | 1.95 | 0.225 |  |  |  |  |  |  | 0.0646 | 
9 | B9 | 0.699 | 33.1 | 0.294 |  |  |  |  |  |  | 0.113 | 
10 | B10 | 0.87 | 62.5 | 0.259 |  |  |  |  |  |  | 0.119 | 
11 | B11 | 0.458 | 5.43 | 0.276 |  |  |  |  |  |  | 0.113 | 
12 | B12 | 2.45 | 3.64 | 0.12 |  |  |  |  |  |  | 0.0633 | 
13 | B13 | 0.291 | 0.375 |  |  | 0.221 |  | 0.291 | 0.000233 | 802000 | 0.0235 | 0.14
